Assay results published in patent publication US20150299313A1 (Chugai, published 2015).

Legend:
[1] = biological target: T1, soluble human IL-6 receptor (human, UniProt P08887 20-357); experiment: SPR (Biacore T100), pH 7.4, 37 C
T1 construct: also called hsIL-6R; hIL6R
T1 sequence: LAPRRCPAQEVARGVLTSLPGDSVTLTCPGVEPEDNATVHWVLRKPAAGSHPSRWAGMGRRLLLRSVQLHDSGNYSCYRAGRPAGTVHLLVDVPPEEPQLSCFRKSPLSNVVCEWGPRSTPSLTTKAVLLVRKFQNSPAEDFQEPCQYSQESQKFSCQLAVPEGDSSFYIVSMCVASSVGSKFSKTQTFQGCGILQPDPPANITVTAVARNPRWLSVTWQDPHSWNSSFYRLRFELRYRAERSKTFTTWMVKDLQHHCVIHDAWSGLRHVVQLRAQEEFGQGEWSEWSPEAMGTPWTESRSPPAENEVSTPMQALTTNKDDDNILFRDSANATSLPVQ
Procedure: (§1) All samples were measured at 37° C.
(§2) Individual parameters were calculated by use of Biacore T100 Evaluation Software (GE Healthcare).

[2] = biological target: T1, soluble human IL-6 receptor; experiment: SPR (Biacore T100), 3 uM CaCl2, pH 7.4, 37 C (summary table)
Procedure: as §1
From the sensorgram obtained by measurement, an association constant, ka (1/Ms) and a dissociation constant kd (1/s) as kinetics parameters were computationally obtained. From the values, KD (M) of each antibody to a human IL-6 receptor was calculated. Individual parameters were calculated by use of Biacore T100 Evaluation Software (GE Healthcare).
as §2

[3] = biological target: T1, soluble human IL-6 receptor; experiment: SPR (Biacore T100), 3 uM CaCl2, pH 7.4, 37 C; roughly calculated by Req=C*Rmax/(KD+C)+RI; 3 µM CaCl2; KD estimated by Expression 1

B1: FH4-IgG1 (antibody, V domains shown)
VH: QVQLVQSGAEVKKPGSSVKVSCKASGGTFSSYAISWVRQAPGQGLEWMGGIIPIFGTANYAQKFQGRVTITADESTSTAYMELSSLRSEDTAVYYCARERDYYDSSGYYDAFDIWGQGTMVTVSS
VL: ETTVTQSPSFLSASVGDRVTITCITTTDIDDDMNWFQQEPGKAPKLLISEGNILRPGVPSRFSSSGYGTDFTLTISKLQPEDFATYYCLQSDNLPFTFGQGTKLEIKR
notes: Ca-dependent anti-IL-6R antibody from a human phage library
Question: What does the source list for B1?
Answer: Ca dependency (KD at 3 uM CaCl2 against KD at 2 mM CaCl2) [1]: ≥ 60 fold; Kd [2]: ≥ 34 µM; Kd [3]: ~34 µM

B2: 6RL#9-IgG1 (antibody, V domains shown)
VH: QVQLVQSGAEVKKPGASVKVSCKASGYTFTSYYMHWVRQAPGQGLEWMGIINPSGGSTSYAQKFQGRVTMTRDTSTSTVYMELSSLRSEDTAVYYCARDDPGGGEYYFDYWGQGTLVTVSS
VL: QSVLTQPPSVSGAPGQRVTISCTGSRSNMGAGYDVHWYQLLPGAAPKLLISHNTHRPSGVPDRFSGSKSGASASLAITGLQAEDEADYYCQSHDSSLSAVVFGGGTKLTVLS
notes: as for B1
Question: B2 was tested. Which “Ca dependency (KD at 3 uM CaCl2 against KD at 2 mM CaCl2)” value [1] did it give?
Answer: ≥ 120 fold

Question: What about the Kd [2] of the same binder?
Answer: ≥ 31 µM

Question: What about the Kd [3] of the same binder?
Answer: ~31 µM
